Experimental data: PMC6180065, “Deciphering molecular details in the assembly of alpha-type carboxysome” (Scientific Reports, 2018)

Molecular target: T1, MBP tagged CbbL(1–136) (Halothiobacillus neapolitan (ATCC 23641), UniProt O85040 1-136)
T1 construct: Residues 1-136 (N domain) of RuBisCO large subunit CbbL of Halothiobacillus neapolitan (ATCC 23641); The coat of the ELISA; also called CbbL(N)
T1 sequence (looked up): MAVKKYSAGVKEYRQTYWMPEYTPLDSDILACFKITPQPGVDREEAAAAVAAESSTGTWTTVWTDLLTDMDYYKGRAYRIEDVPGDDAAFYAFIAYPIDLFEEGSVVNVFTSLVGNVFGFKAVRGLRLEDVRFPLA
Test: ELISA; semi-quantitative; MaxiSorp plates coated with MBP-tagged CbbL(1–136) (30 nM in 0.1 M Na2CO3 pH 9.6, 4 °C, 12 h); CsoS1C-6xHis 5 nM to 5 μM in blocking buffer (1 mM CaCl2, 1% BSA in TBS), 1 h at room temperature; detected by 6xHis tag antibody and anti-mouse IgG-HRP; Hill equation fit; apparent Kd
Settings: both partners purified

B1: CsoS1C-6xHis (natural protein, Halothiobacillus neapolitan (ATCC 23641))
chain: MAAVTGIALGMIETRGLVPAIEAADAMTKAAEVRLVGRQFVGGGYVTVLVRGETGAVNAAVRAGADACERVGDGLVAAHIIARVHSEVENILPKAPEA
notes: Carboxysome shell protein CsoS1C of Halothiobacillus neapolitan (ATCC 23641); printed length 98 a.a; not measured in the assay
  Kd: 120 ± 4.6 nM
